Reference: article PMC9130567

Target: Human properdin (factor P) (human) (UniProt P27918)
Assay: SPR; FP immobilised by amine coupling to 79.55 RU; FXI or FXIa injected by OneStep gradient, maximum 50 nM, 30 uL/min, dissociation 300 s; Pall/ForteBio Pioneer; run in triplicate

UniProt P27918, sequence (P27918 28-469): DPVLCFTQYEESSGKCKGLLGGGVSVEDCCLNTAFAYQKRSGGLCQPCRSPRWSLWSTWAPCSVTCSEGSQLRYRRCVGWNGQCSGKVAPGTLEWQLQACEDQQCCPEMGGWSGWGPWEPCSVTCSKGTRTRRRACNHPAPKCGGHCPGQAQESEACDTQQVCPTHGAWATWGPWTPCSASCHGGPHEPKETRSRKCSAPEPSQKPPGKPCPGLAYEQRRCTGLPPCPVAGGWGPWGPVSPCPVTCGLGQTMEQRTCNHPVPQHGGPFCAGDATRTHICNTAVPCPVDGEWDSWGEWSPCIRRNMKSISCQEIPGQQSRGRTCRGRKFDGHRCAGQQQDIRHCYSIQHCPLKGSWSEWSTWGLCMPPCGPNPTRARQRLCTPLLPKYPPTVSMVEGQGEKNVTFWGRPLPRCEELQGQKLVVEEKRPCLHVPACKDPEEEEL

Kd [nM] | Substance
0.35 | Human activated coagulation factor XI (preactivated by FXIIa) (enzyme)
16.1 | Human coagulation factor XI zymogen (natural protein)
